Experimental data from the supplement of paper PMC9876800.

Tested on: peptide library, one residue held at a place counted from the S/T acceptor
Test: relative phosphorylation of the sub-library (ratio to the mean residue at this position); higher = residue favoured
Conditions: human
Outline: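 In 384-well plates, purified recombinant kinases (human or orthologue constructs) were incubated for 90 min under kinase-specific conditions with 50 μM biotinylated degenerate peptide sub-libraries and 50 μM ATP spiked with γ-32P-ATP. Each sub-library fixed a single residue at one position around a central Ser/Thr. Relative sub-library phosphorylation, measured by phosphorimaging and densitometry of streptavidin membrane spots, is given as a ratio to the mean residue at that position.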

Work on “PRKCA, construct: Full length (from UniProt P17252)” yielded a relative phosphorylation (A fixed, at +1) of 0.485, a relative phosphorylation (A fixed, at +2) of 0.407 and a relative phosphorylation (A fixed, at +3) of 0.553. The relative phosphorylation (A fixed, at +4) was 0.819, the relative phosphorylation (A fixed, at -1) was 0.905 and the relative phosphorylation (A fixed, at -2) was 0.911. For the same substance, the relative phosphorylation (A fixed, at -3) was 0.726, the relative phosphorylation (A fixed, at -4) was 1.03 and the relative phosphorylation (A fixed, at -5) was 1.09. The relative phosphorylation (D fixed, at +1) was 0.185, the relative phosphorylation (D fixed, at +2) was 0.216 and the relative phosphorylation (D fixed, at +3) was 0.528. For the same substance, the relative phosphorylation (D fixed, at +4) was 0.597, the relative phosphorylation (D fixed, at -1) was 0.541 and the relative phosphorylation (D fixed, at -2) was 0.467. The relative phosphorylation (D fixed, at -3) was 0.389, the relative phosphorylation (D fixed, at -4) was 0.578 and the relative phosphorylation (D fixed, at -5) was 0.646. It also gave a relative phosphorylation (E fixed, at +1) of 0.21, a relative phosphorylation (E fixed, at +2) of 0.16 and a relative phosphorylation (E fixed, at +3) of 0.526. It also gave a relative phosphorylation (E fixed, at +4) of 0.514, a relative phosphorylation (E fixed, at -1) of 0.472 and a relative phosphorylation (E fixed, at -2) of 0.407. It also gave a relative phosphorylation (E fixed, at -3) of 0.439, a relative phosphorylation (E fixed, at -4) of 0.724 and a relative phosphorylation (E fixed, at -5) of 0.643. The relative phosphorylation (F fixed, at +1) was 1.74, the relative phosphorylation (F fixed, at +2) was 0.477 and the relative phosphorylation (F fixed, at +3) was 1.01. The relative phosphorylation (F fixed, at +4) was 0.553, the relative phosphorylation (F fixed, at -1) was 0.637 and the relative phosphorylation (F fixed, at -2) was 0.727. For the same substance, the relative phosphorylation (F fixed, at -3) was 0.963, the relative phosphorylation (F fixed, at -4) was 0.892 and the relative phosphorylation (F fixed, at -5) was 1.14. For the same substance, the relative phosphorylation (G fixed, at +1) was 0.648, the relative phosphorylation (G fixed, at +2) was 0.42 and the relative phosphorylation (G fixed, at +3) was 1.16. It also gave a relative phosphorylation (G fixed, at +4) of 1.46, a relative phosphorylation (G fixed, at -1) of 2.07 and a relative phosphorylation (G fixed, at -2) of 1.34. It also gave a relative phosphorylation (G fixed, at -3) of 1.23, a relative phosphorylation (G fixed, at -4) of 1.47 and a relative phosphorylation (G fixed, at -5) of 1.53. For the same substance, the relative phosphorylation (H fixed, at +1) was 0.597, the relative phosphorylation (H fixed, at +2) was 1.23 and the relative phosphorylation (H fixed, at +3) was 1.12. The relative phosphorylation (H fixed, at +4) was 1.09, the relative phosphorylation (H fixed, at -1) was 0.948 and the relative phosphorylation (H fixed, at -2) was 0.985. It also gave a relative phosphorylation (H fixed, at -3) of 1.05, a relative phosphorylation (H fixed, at -4) of 1.04 and a relative phosphorylation (H fixed, at -5) of 0.997. For the same substance, the relative phosphorylation (I fixed, at +1) was 1.64, the relative phosphorylation (I fixed, at +2) was 0.499 and the relative phosphorylation (I fixed, at +3) was 0.602. For the same substance, the relative phosphorylation (I fixed, at +4) was 0.58, the relative phosphorylation (I fixed, at -1) was 0.389 and the relative phosphorylation (I fixed, at -2) was 0.413. The relative phosphorylation (I fixed, at -3) was 0.501, the relative phosphorylation (I fixed, at -4) was 0.59 and the relative phosphorylation (I fixed, at -5) was 0.646. For the same substance, the relative phosphorylation (K fixed, at +1) was 1.69, the relative phosphorylation (K fixed, at +2) was 3.79 and the relative phosphorylation (K fixed, at +3) was 1.99. It also gave a relative phosphorylation (K fixed, at +4) of 2.3, a relative phosphorylation (K fixed, at -1) of 1.88 and a relative phosphorylation (K fixed, at -2) of 1.79. It also gave a relative phosphorylation (K fixed, at -3) of 1.6, a relative phosphorylation (K fixed, at -4) of 1.39 and a relative phosphorylation (K fixed, at -5) of 1.43. The relative phosphorylation (L fixed, at +1) was 1.42, the relative phosphorylation (L fixed, at +2) was 0.395 and the relative phosphorylation (L fixed, at +3) was 0.843. It also gave a relative phosphorylation (L fixed, at +4) of 0.499, a relative phosphorylation (L fixed, at -1) of 0.638 and a relative phosphorylation (L fixed, at -2) of 0.469. For the same substance, the relative phosphorylation (L fixed, at -3) was 0.493, the relative phosphorylation (L fixed, at -4) was 0.549 and the relative phosphorylation (L fixed, at -5) was 0.688. For the same substance, the relative phosphorylation (M fixed, at +1) was 1.33, the relative phosphorylation (M fixed, at +2) was 0.571 and the relative phosphorylation (M fixed, at +3) was 0.741. The relative phosphorylation (M fixed, at +4) was 0.564, the relative phosphorylation (M fixed, at -1) was 0.826 and the relative phosphorylation (M fixed, at -2) was 0.678. For the same substance, the relative phosphorylation (M fixed, at -3) was 0.796, the relative phosphorylation (M fixed, at -4) was 0.649 and the relative phosphorylation (M fixed, at -5) was 0.626. For the same substance, the relative phosphorylation (N fixed, at +1) was 0.561, the relative phosphorylation (N fixed, at +2) was 0.86 and the relative phosphorylation (N fixed, at +3) was 0.918. The relative phosphorylation (N fixed, at +4) was 1.04, the relative phosphorylation (N fixed, at -1) was 1.39 and the relative phosphorylation (N fixed, at -2) was 1.08. It also gave a relative phosphorylation (N fixed, at -3) of 1.2, a relative phosphorylation (N fixed, at -4) of 0.915 and a relative phosphorylation (N fixed, at -5) of 0.877. For the same substance, the relative phosphorylation (P fixed, at +1) was 0.364, the relative phosphorylation (P fixed, at +2) was 0.401 and the relative phosphorylation (P fixed, at +3) was 0.697. It also gave a relative phosphorylation (P fixed, at +4) of 1.55, a relative phosphorylation (P fixed, at -1) of 1.26 and a relative phosphorylation (P fixed, at -2) of 1.13. For the same substance, the relative phosphorylation (P fixed, at -3) was 1.43, the relative phosphorylation (P fixed, at -4) was 1.45 and the relative phosphorylation (P fixed, at -5) was 1.22. It also gave a relative phosphorylation (Q fixed, at +1) of 1.41, a relative phosphorylation (Q fixed, at +2) of 0.684 and a relative phosphorylation (Q fixed, at +3) of 1.03. The relative phosphorylation (Q fixed, at +4) was 0.926, the relative phosphorylation (Q fixed, at -1) was 1.04 and the relative phosphorylation (Q fixed, at -2) was 1.15. It also gave a relative phosphorylation (Q fixed, at -3) of 0.886, a relative phosphorylation (Q fixed, at -4) of 1.12 and a relative phosphorylation (Q fixed, at -5) of 0.716. It also gave a relative phosphorylation (R fixed, at +1) of 1.87, a relative phosphorylation (R fixed, at +2) of 4.65 and a relative phosphorylation (R fixed, at +3) of 2.46. For the same substance, the relative phosphorylation (R fixed, at +4) was 2.26, the relative phosphorylation (R fixed, at -1) was 2.01 and the relative phosphorylation (R fixed, at -2) was 3.23. For the same substance, the relative phosphorylation (R fixed, at -3) was 3.44, the relative phosphorylation (R fixed, at -4) was 1.59 and the relative phosphorylation (R fixed, at -5) was 1.84. For the same substance, the relative phosphorylation (V fixed, at +1) was 1.26, the relative phosphorylation (V fixed, at +2) was 0.464 and the relative phosphorylation (V fixed, at +3) was 0.662. It also gave a relative phosphorylation (V fixed, at +4) of 0.703, a relative phosphorylation (V fixed, at -1) of 0.661 and a relative phosphorylation (V fixed, at -2) of 0.522. The relative phosphorylation (V fixed, at -3) was 0.447, the relative phosphorylation (V fixed, at -4) was 0.92 and the relative phosphorylation (V fixed, at -5) was 0.638. The relative phosphorylation (W fixed, at +1) was 0.729, the relative phosphorylation (W fixed, at +2) was 0.586 and the relative phosphorylation (W fixed, at +3) was 0.972. The relative phosphorylation (W fixed, at +4) was 0.797, the relative phosphorylation (W fixed, at -1) was 0.475 and the relative phosphorylation (W fixed, at -2) was 1. For the same substance, the relative phosphorylation (W fixed, at -3) was 0.589, the relative phosphorylation (W fixed, at -4) was 1.28 and the relative phosphorylation (W fixed, at -5) was 1.38. It also gave a relative phosphorylation (Y fixed, at +1) of 0.867, a relative phosphorylation (Y fixed, at +2) of 1.19 and a relative phosphorylation (Y fixed, at +3) of 1.19. The relative phosphorylation (Y fixed, at +4) was 0.747, the relative phosphorylation (Y fixed, at -1) was 0.862 and the relative phosphorylation (Y fixed, at -2) was 0.686. It also gave a relative phosphorylation (Y fixed, at -3) of 0.811, a relative phosphorylation (Y fixed, at -4) of 0.805 and a relative phosphorylation (Y fixed, at -5) of 0.884. For the same substance, the relative phosphorylation (pThr fixed, at +1) was 0.729, the relative phosphorylation (pThr fixed, at +2) was 0.345 and the relative phosphorylation (pThr fixed, at +3) was 0.663. It also gave a relative phosphorylation (pThr fixed, at +4) of 0.482, a relative phosphorylation (pThr fixed, at -1) of 0.348 and a relative phosphorylation (pThr fixed, at -2) of 0.603. It also gave a relative phosphorylation (pThr fixed, at -3) of 0.636, a relative phosphorylation (pThr fixed, at -4) of 0.807 and a relative phosphorylation (pThr fixed, at -5) of 0.655. The relative phosphorylation (pTyr fixed, at +1) was 0.38, the relative phosphorylation (pTyr fixed, at +2) was 0.31 and the relative phosphorylation (pTyr fixed, at +3) was 0.58. The relative phosphorylation (pTyr fixed, at +4) was 0.427, the relative phosphorylation (pTyr fixed, at -1) was 0.983 and the relative phosphorylation (pTyr fixed, at -2) was 0.679. The relative phosphorylation (pTyr fixed, at -3) was 0.98, the relative phosphorylation (pTyr fixed, at -4) was 0.802 and the relative phosphorylation (pTyr fixed, at -5) was 1.11.
